Data: patent publication US20180251524A1 (published 2018)

Key:
Clone 3.2.20 = assay: yeast display flow cytometry titration; apparent
Clone 3.2.17 = assay: yeast display flow cytometry titration; estimated
Clone 3.2.16 = assay: yeast display flow cytometry titration; estimated
Clone 3.2.22 = assay: yeast display flow cytometry titration; estimated
Clone 3.2.1 = assay: yeast display flow cytometry titration; estimated
1DD-Fn-v4 Monomers = assay: flow cytometry titration on cells; apparent

Kd (Clone 3.2.20) [nM] | Kd (Clone 3.2.17) [nM] | Kd (Clone 3.2.16) [nM] | Kd (Clone 3.2.22) [nM] | Kd (Clone 3.2.1) [nM] | Kd (1DD-Fn-v4 Monomers) [nM] | Binder
140 | 130 | 150 | 190 | 190 |  | EpCAM (receptor, biotinylated (site not stated)) QEECVCENYKLAVNCFVNNNRQCQCTSVGAQNTVICSKLAAKCLVMKAEMNGSKLGRRAKPEGALQNNDGLYDPDCDESGLFKAKQCNGTSMCWCVNTAGVRRTDKDTEITCSERVRTYWIIIELKHKAREKPYDSKSLRTALQKEITTRYQLDPKFITSILYENNVITIDLVQNSSQKTQNDVDIADVAYYFEKDVKGESLFHSKKMDLTVNGEQLDLDPGQTLIYYVDEKAPEFSMQGLK
 |  |  |  |  | 34.8 | MCF-7 Cells (receptor) QEECVCENYKLAVNCFVNNNRQCQCTSVGAQNTVICSKLAAKCLVMKAEMNGSKLGRRAKPEGALQNNDGLYDPDCDESGLFKAKQCNGTSMCWCVNTAGVRRTDKDTEITCSERVRTYWIIIELKHKAREKPYDSKSLRTALQKEITTRYQLDPKFITSILYENNVITIDLVQNSSQKTQNDVDIADVAYYFEKDVKGESLFHSKKMDLTVNGEQLDLDPGQTLIYYVDEKAPEFSMQGLKAGVIAVIVVVVIAVVAGIVVLVISRKKRMAKYEKAEIKEMGEMHRELNA
